From PMC3017672 (Journal of molecular biology, 2010)

Target: the molecule itself
Test: cryo-EM structure

B1: bacteriophage 80α capsid protein gp47 (natural protein, Staphylococcus aureus bacteriophage 80α, UniProt A4ZFB3 15-324, looked up)
chain: ASNNVKPQVFNPDNVMMHEKKDGTLMNEFTTPILQEVMENSKIMQLGKYEPMEGTEKKFTFWADKPGAYWVGEGQKIETSKATWVNATMRAFKLGVILPVTKEFLNYTYSQFFEEMKPMIAEAFYKKFDEAGILNQGNNPFGKSIAQSIEKTNKVIKGDFTQDNIIDLEALLEDDELEANAFISKTQNRSLLRKIVDPETKERIYDRNSDSLDGLPVVNLKSSNLKRGELITGDFDKLIYGIPQLIEYKIDETAQLSTVKNEDGTPVNLFEQDMVALRATMHVALHIADDKAFAKLVPADKRTDSVPGEV
stoichiometry N: 420 copies
